Source: patent publication US20180334702A1 (SYSMEX, published 2018)
No end group written: not given here. *: point of attachment. aminohexane = linker joining biotin to the N-terminal residue; Biotin = O=C1N[C@H]2[C@H](CS[C@H]2CCCCC(=O)*)N1

B1: Comparative Polypeptide 2 (peptide)
peptide: {Biotin-aminohexane}-RRRFRPASPLRGPPK
B2: Comparative Polypeptide 3 (peptide)
peptide: {Biotin-aminohexane}-PYKISEGLPTPTKMTPRSRI-NH2
B3: Comparative Polypeptide 4 (peptide)
peptide: {Biotin-aminohexane}-PYKISEGLPTPAKMAPRSRI-NH2
B4: Comparative Polypeptide 1 (peptide)
peptide: {Biotin-aminohexane}-PYKISEGLPTPTKMTPRSRI
B5: Polypeptide 1 (peptide)
peptide: {Biotin-aminohexane}-GMPWSPNPWWRGGGG
B6: Comparative Polypeptide 6 (peptide)
peptide: {Biotin-aminohexane}-GGGRAAPLSPIPHIPR
B7: Polypeptide 26 (peptide)
peptide: {Biotin-aminohexane}-LVEMTGLSPRDIRVD
B8: Comparative Polypeptide 7 (peptide)
peptide: {Biotin-aminohexane}-LVEMTGLSPRVIRVW
B9: Polypeptide 25 (peptide)
peptide: {Biotin-aminohexane}-GGGRAAPLSPIDHIPD
B10: Polypeptide 18 (peptide)
peptide: {Biotin-aminohexane}-RRRFRPASPLDGPPD
B11: Polypeptide 22 (peptide)
peptide: {Biotin-aminohexane}-GGGKAPLTPKDAD
B12: Polypeptide 24 (peptide)
peptide: {Biotin-aminohexane}-GGGRAAPLSPDPHIPD
B13: Comparative Polypeptide 5 (peptide)
peptide: {Biotin-aminohexane}-GGGKAPLTPKKAK
B14: Polypeptide 23 (peptide)
peptide: {Biotin-aminohexane}-GGGKAPLTPLDAD
B15: Polypeptide 3 (peptide)
peptide: {Biotin-aminohexane}-GAPWSPNPWWRGGGG
B16: Polypeptide 28 (peptide)
peptide: {Biotin-aminohexane}-GAPWSPDPWDDGGGG
B17: Polypeptide 27 (peptide)
peptide: {Biotin-aminohexane}-GAPWSPNDWWDGGGG

The binders below were run against T1, CDK4/cyclin D3 (UniProt P11802 1-303; P30281 1-292) (assay: cell-based or functional assay).
T1 sequence (P11802 whole entry, chain 1 of 2): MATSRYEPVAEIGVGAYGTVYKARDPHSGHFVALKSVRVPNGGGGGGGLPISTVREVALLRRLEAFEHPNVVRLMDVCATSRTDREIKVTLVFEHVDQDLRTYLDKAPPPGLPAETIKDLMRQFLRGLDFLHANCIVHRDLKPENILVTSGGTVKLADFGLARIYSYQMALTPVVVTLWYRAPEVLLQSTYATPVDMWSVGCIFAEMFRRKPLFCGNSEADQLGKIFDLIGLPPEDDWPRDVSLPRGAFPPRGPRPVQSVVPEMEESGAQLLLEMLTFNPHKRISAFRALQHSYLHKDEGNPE
T1 sequence (P30281 whole entry, chain 2 of 2): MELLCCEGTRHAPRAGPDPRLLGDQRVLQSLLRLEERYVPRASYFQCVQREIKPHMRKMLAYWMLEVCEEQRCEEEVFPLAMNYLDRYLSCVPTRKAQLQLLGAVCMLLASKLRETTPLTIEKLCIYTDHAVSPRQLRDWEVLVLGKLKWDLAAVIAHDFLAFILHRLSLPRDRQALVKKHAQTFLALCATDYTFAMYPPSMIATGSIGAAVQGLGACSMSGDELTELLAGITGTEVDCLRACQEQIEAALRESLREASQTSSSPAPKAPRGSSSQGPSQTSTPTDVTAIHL

Question: Which “relative luminescence intensity (CDK6 = 100%)” value does the source give for B1 here?
Answer: 51%

Question: B2 was tested. Which “relative luminescence intensity (CDK6 = 100%)” value did it give?
Answer: 7%

Each binder was assayed against T2, CDK2/cyclin E1 (UniProt P24941 1-298; P24864 1-410) (assay: cell-based or functional assay).

Question: B3 was tested. Which “relative luminescence intensity (CDK6 = 100%)” value did it give?
Answer: 2680%

Question: Which “relative luminescence intensity (CDK6 = 100%)” value does the source give for B1 here?
Answer: 198%

Question: Which “relative luminescence intensity (CDK6 = 100%)” value does the source give for B2 here?
Answer: 766%

Each binder was assayed against T3, CDK1/cyclin A2 (UniProt P06493 1-297; P20248 1-432, limits assumed) (assay: cell-based or functional assay).
T3 sequence (P06493 whole entry, chain 1 of 2): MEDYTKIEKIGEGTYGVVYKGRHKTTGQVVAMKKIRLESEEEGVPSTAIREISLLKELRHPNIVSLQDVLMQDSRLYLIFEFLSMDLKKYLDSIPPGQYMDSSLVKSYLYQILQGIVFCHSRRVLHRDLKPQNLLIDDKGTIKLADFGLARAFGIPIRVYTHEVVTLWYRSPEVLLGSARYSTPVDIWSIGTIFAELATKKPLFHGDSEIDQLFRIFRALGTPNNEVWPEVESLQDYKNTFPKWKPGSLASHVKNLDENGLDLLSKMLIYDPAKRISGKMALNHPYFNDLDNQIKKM
T3 sequence (P20248 whole entry, chain 2 of 2): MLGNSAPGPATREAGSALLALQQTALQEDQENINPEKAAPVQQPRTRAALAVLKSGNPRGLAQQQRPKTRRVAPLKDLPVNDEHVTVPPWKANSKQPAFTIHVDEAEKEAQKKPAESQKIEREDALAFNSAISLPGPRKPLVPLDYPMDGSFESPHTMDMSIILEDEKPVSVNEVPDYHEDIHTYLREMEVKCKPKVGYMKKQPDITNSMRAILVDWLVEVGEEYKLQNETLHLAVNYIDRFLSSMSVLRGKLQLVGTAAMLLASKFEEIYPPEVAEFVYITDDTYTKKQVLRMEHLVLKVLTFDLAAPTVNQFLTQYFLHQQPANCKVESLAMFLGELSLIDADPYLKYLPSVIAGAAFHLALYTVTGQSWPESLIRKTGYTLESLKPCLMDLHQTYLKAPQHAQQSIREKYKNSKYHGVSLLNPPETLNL

Question: With B3 as the binder, how does the “relative luminescence intensity (CDK6 = 100%)” value read?
Answer: 3250%

Question: With B1 as the binder, how does the “relative luminescence intensity (CDK6 = 100%)” value read?
Answer: 606%

Question: For B2, which “relative luminescence intensity (CDK6 = 100%)” value is on record?
Answer: 678%

Each binder was assayed against T4, CDK6/cyclin D3 (UniProt Q00534 1-326; P30281 1-292) (assay: cell-based or functional assay).
T4 sequence (Q00534 whole entry, chain 1 of 2): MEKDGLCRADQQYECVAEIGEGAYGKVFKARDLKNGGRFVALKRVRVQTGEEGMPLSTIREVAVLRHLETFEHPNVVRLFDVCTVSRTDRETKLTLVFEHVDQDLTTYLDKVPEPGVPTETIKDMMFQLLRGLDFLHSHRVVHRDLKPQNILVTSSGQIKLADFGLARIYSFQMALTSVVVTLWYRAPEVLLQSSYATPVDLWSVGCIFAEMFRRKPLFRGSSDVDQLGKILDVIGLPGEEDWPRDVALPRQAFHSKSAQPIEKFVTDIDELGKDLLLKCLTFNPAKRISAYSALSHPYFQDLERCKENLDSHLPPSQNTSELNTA
T4 sequence (P30281 whole entry, chain 2 of 2): as the sequence (P30281 whole entry, chain 2 of 2) above

Question: How did the “relative value of the luminescence intensity (Comparative Polypeptide 2 = 1.00)” value (from here on “relative value”) turn out when B4 was run?
Answer: 0.43 relative value

Question: Which “relative value” value does the source give for B5 here?
Answer: 7.06 relative value

Question: For B1, which “relative value” value is on record?
Answer: 1 relative value

Molecular target: T1, CDK4/cyclin D3
Test: cell-based or functional assay
Remark: another data set of the same source

Question: Which “relative value” value does the source give for B4 here?
Answer: 0.15 relative value

Question: With B5 as the binder, how does the “relative value” value read?
Answer: 18.6 relative value

Question: B1 was tested. Which “relative value” value did it give?
Answer: 1 relative value

Molecular target: T2, CDK2/cyclin E1
Test: cell-based or functional assay
Remark: another data set of the same source

Question: With B4 as the binder, how does the “relative value” value read?
Answer: 6.44 relative value

Question: Which “relative value” value does the source give for B5 here?
Answer: 6.12 relative value

Question: B1 was tested. Which “relative value” value did it give?
Answer: 1 relative value

Molecular target: T3, CDK1/cyclin A2
Test: cell-based or functional assay
Remark: another data set of the same source

Question: With B4 as the binder, how does the “relative value” value read?
Answer: 1.63 relative value

Question: Which “relative value” value does the source give for B5 here?
Answer: 2.24 relative value

Question: B1 was tested. Which “relative value” value did it give?
Answer: 1 relative value

Molecular target: T4, CDK6/cyclin D3
Test: cell-based or functional assay
Remark: another data set of the same source

Question: For B4, which Luminescence intensity is on record?
Answer: 7.42e+06

Question: B5 was tested. Which Luminescence intensity did it give?
Answer: 1.22e+08

Question: With B1 as the binder, how does the Luminescence intensity read?
Answer: 1.73e+07

Molecular target: T1, CDK4/cyclin D3
Test: cell-based or functional assay
Remark: another data set of the same source

Question: With B4 as the binder, how does the Luminescence intensity read?
Answer: 811000

Question: With B5 as the binder, how does the Luminescence intensity read?
Answer: 1.01e+08

Question: Which Luminescence intensity does the source give for B1 here?
Answer: 5.44e+06

Molecular target: T2, CDK2/cyclin E1
Test: cell-based or functional assay
Remark: another data set of the same source

Question: How did the Luminescence intensity turn out when B4 was run?
Answer: 1.04e+08

Question: How did the Luminescence intensity turn out when B5 was run?
Answer: 9.92e+07

Question: With B1 as the binder, how does the Luminescence intensity read?
Answer: 1.62e+07

Molecular target: T3, CDK1/cyclin A2
Test: cell-based or functional assay
Remark: another data set of the same source

Question: Which Luminescence intensity does the source give for B4 here?
Answer: 6.76e+07

Question: With B5 as the binder, how does the Luminescence intensity read?
Answer: 9.32e+07

Question: For B1, which Luminescence intensity is on record?
Answer: 4.15e+07

Molecular target: T1, CDK4/cyclin D3
Test: cell-based or functional assay
Remark: another data set of the same source

Question: With B6 as the binder, how does the “relative luminescence intensity (CDK6 = 100%)” value read?
Answer: 190%

Question: With B7 as the binder, how does the “relative luminescence intensity (CDK6 = 100%)” value read?
Answer: 18%

Question: For B8, which “relative luminescence intensity (CDK6 = 100%)” value is on record?
Answer: 55%

Question: For B9, which “relative luminescence intensity (CDK6 = 100%)” value is on record?
Answer: 40%

Question: How did the “relative luminescence intensity (CDK6 = 100%)” value turn out when B10 was run?
Answer: 14%

Question: For B11, which “relative luminescence intensity (CDK6 = 100%)” value is on record?
Answer: 46%

Question: B12 was tested. Which “relative luminescence intensity (CDK6 = 100%)” value did it give?
Answer: 54%

Question: With B1 as the binder, how does the “relative luminescence intensity (CDK6 = 100%)” value read?
Answer: 245%

Question: For B13, which “relative luminescence intensity (CDK6 = 100%)” value is on record?
Answer: 56%

Question: With B14 as the binder, how does the “relative luminescence intensity (CDK6 = 100%)” value read?
Answer: 37%

Molecular target: T2, CDK2/cyclin E1
Test: cell-based or functional assay
Remark: another data set of the same source

Question: With B6 as the binder, how does the “relative luminescence intensity (CDK6 = 100%)” value read?
Answer: 44%

Question: For B8, which “relative luminescence intensity (CDK6 = 100%)” value is on record?
Answer: 10%

Question: Which “relative luminescence intensity (CDK6 = 100%)” value does the source give for B9 here?
Answer: 62%

Question: For B11, which “relative luminescence intensity (CDK6 = 100%)” value is on record?
Answer: 15%

Question: How did the “relative luminescence intensity (CDK6 = 100%)” value turn out when B12 was run?
Answer: 54%

Question: Which “relative luminescence intensity (CDK6 = 100%)” value does the source give for B1 here?
Answer: 321%

Question: For B13, which “relative luminescence intensity (CDK6 = 100%)” value is on record?
Answer: 156%

Molecular target: T3, CDK1/cyclin A2
Test: cell-based or functional assay
Remark: another data set of the same source

Question: With B6 as the binder, how does the “relative luminescence intensity (CDK6 = 100%)” value read?
Answer: 119%

Question: For B7, which “relative luminescence intensity (CDK6 = 100%)” value is on record?
Answer: 295%

Question: Which “relative luminescence intensity (CDK6 = 100%)” value does the source give for B8 here?
Answer: 1150%

Question: With B10 as the binder, how does the “relative luminescence intensity (CDK6 = 100%)” value read?
Answer: 22%

Question: Which “relative luminescence intensity (CDK6 = 100%)” value does the source give for B11 here?
Answer: 27%

Question: How did the “relative luminescence intensity (CDK6 = 100%)” value turn out when B1 was run?
Answer: 318%

Question: B13 was tested. Which “relative luminescence intensity (CDK6 = 100%)” value did it give?
Answer: 143%

Molecular target: T4, CDK6/cyclin D3
Test: cell-based or functional assay
Remark: another data set of the same source

Question: For B15, which “relative reactivity (Polypeptide 3 = 100%)” value is on record?
Answer: 100%

Question: With B16 as the binder, how does the “relative reactivity (Polypeptide 3 = 100%)” value read?
Answer: 25%

Question: Which “relative reactivity (Polypeptide 3 = 100%)” value does the source give for B17 here?
Answer: 33%

Molecular target: T1, CDK4/cyclin D3
Test: cell-based or functional assay
Remark: another data set of the same source

Question: Which “relative reactivity (Polypeptide 3 = 100%)” value does the source give for B15 here?
Answer: 100%

Question: For B16, which “relative reactivity (Polypeptide 3 = 100%)” value is on record?
Answer: 50%

Question: B17 was tested. Which “relative reactivity (Polypeptide 3 = 100%)” value did it give?
Answer: 37%

Molecular target: T2, CDK2/cyclin E1
Test: cell-based or functional assay
Remark: another data set of the same source

Question: B15 was tested. Which “relative reactivity (Polypeptide 3 = 100%)” value did it give?
Answer: 100%

Question: B16 was tested. Which “relative reactivity (Polypeptide 3 = 100%)” value did it give?
Answer: 13%

Question: With B17 as the binder, how does the “relative reactivity (Polypeptide 3 = 100%)” value read?
Answer: 20%

Molecular target: T3, CDK1/cyclin A2
Test: cell-based or functional assay
Remark: another data set of the same source

Question: Which “relative reactivity (Polypeptide 3 = 100%)” value does the source give for B15 here?
Answer: 100%

Question: B16 was tested. Which “relative reactivity (Polypeptide 3 = 100%)” value did it give?
Answer: 4%

Question: How did the “relative reactivity (Polypeptide 3 = 100%)” value turn out when B17 was run?
Answer: 13%
